Paper PMC10080908

Target: RNF111 RING (Homo sapiens), Q6ZNA4
Sequence (Q6ZNA4 939-986): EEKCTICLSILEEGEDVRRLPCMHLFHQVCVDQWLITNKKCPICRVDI

B1: UBXN7 UAS, O94888 (protein)
chain: IDKKLTTLADLFRPPIDLMHKGSFETAKECGQMQNKWLMINIQNVQDFACQCLNRDVWSNEAVKNIIREHFIFWQVYHDSEEGQRYIQFYKLGDFPYVSILDPRTGQKLVEWHQLDVSSFLDQVTGFLGE
In the case of B1, the Kd is reported as 1000 nM.
